Assay results from patent publication US9999664B2, “HIV-1 gp120 mini V3 loop and uses thereof” (The Scripps Research Institute, priority 2011, dated 2018).

Tests used:
[1] = molecular target: HIV-1 JR-FL envelope (Env) on pseudovirus (HIV-1 JR-FL)
[2] = molecular target: HIV-1JR-FL Env trimers on the surface of transfected 293T cells (Human immunodeficiency virus 1, strain JR-FL); assay: JR-FL cell surface binding, flow cytometry on transfected 293T cells
[3] = molecular target: HIV-1 JR-FL envelope (Env) on pseudovirus (HIV-1 JR-FL); remark: listed apart in the source
[4] = molecular target: gp120 (ELISA antigen of FIG. 3, strain not stated) (HIV-1, strain not stated); assay: ELISA on coated gp120, absorbance at 405 nm
PGT 127 = assay: Neoglycolipid microarray binding, PGT 127; settings: PGT 127 at 10 μg/ml pre-complexed with biotinylated anti-human-IgG; 5 fmol/spot
Method: (§1) The microarrays (designated N-glycan-related Array Set 1) consisted of NGLs prepared by reductive amination (70) or oxime ligation (71) (Table S5). These were robotically printed onto nitrocellulose-coated glass slides as described (72), each at two levels (2 and 5 fmol/spot) in duplicate. The binding assays (70) were performed at ambient temperature. The PGTs 127 and 128 were pre-complexed with biotinylated anti-human-IgG (Vector) at a 1:3 ratio, w/w, before applying onto the slides at a final concentration of 10 μg/ml. Biotinylated ConA (Vector) was tested at 0.5 μg/ml. Binding was detected with Alexa-Fluor 647 labelled streptavidin (Molecular Probes) at 1 μg/ml. Microarray data analysis was performed with dedicated software. Binding signals were oligosaccharide dose-related. Results at 5 fmol/spot with selected oligomannose NGLs (prepared by reductive amination) are in FIG. 9A, and the full data with the 50 NGLs are shown in Table S6. Included for comparison are the results with human 2G12 (Polymun Scientific) taken from an earlier experiment performed using a different version of microarrays (73). Antibody 2G12 was analyzed at 1:10000 dilution (without pre-complexation), and the binding was detected with biotinylated anti-human-IgG followed by Alexa-Fluor 647 labelled streptavidin.

PGT 128 = assay: Neoglycolipid microarray binding, PGT 128; settings: PGT 128 at 10 μg/ml pre-complexed with biotinylated anti-human-IgG; 5 fmol/spot
Method: as §1

plant lectin ConA = molecular target: T1, plant lectin ConA (Canavalia ensiformis, UniProt P02866); assay: Neoglycolipid microarray binding, ConA; settings: biotinylated ConA at 0.5 μg/ml
T1 construct: purchased Vector
Method: as §1

2G12 = 2G12 at 1:10000 dilution; earlier experiment, different version of the microarray; cited from earlier work
gp120 BaL (HIV-1 BaL) = assay: gp120 ELISA
[5] = molecular target: gp120 JR-CSF (HIV-1 JR-CSF) (UniProt P20871); assay: gp120 ELISA
[6] = molecular target: gp120 JR-FL (HIV-1 JR-FL); assay: gp120 ELISA
[7] = molecular target: HIV-1 BaL envelope (Env) on pseudovirus (HIV-1 BaL); assay: cell-based or functional assay
[8] = molecular target: HIV-1 JR-CSF envelope (Env) on pseudovirus (HIV-1 JR-CSF) (UniProt P20871); assay: cell-based or functional assay
[9] = molecular target: HIV-1 JR-FL envelope (Env) on pseudovirus (HIV-1 JR-FL); assay: cell-based or functional assay

Row | Compound | fold change in gp120 binding (EC50 variant/EC50 WT) (gp120 BaL (HIV-1 BaL)) [fold] | fold change in gp120 binding (EC50 variant/EC50 WT) [5] [fold] | fold change in gp120 binding (EC50 variant/EC50 WT) [6] [fold] | Fold change in neutralization (IC50 variant/IC50 WT antibody) [7] [fold] | Fold change in neutralization (IC50 variant/IC50 WT antibody) [8] [fold] | other results
1 | 2G12 IgG (antibody) | – | – | – | – | – | IC50 (JR-FL neutralization) [1]: 8.5 nM; EC50 [2]: 11.6 nM
2 | 128 (-ASYWNR) (antibody) | – | – | – | – | – | IC50 (read off the curve; HIV-1JR-FL pseudovirus) [3]: 0.7 µg/mL; EC50 (read off the curve) [4]: 0.7 µg/mL
3 | CCCCCCCCCCCCCCCCOCC(COP(=O)(O)OCCNCC(NC(C)=O)C(O)C(OC1OC(CO)C(OC2OC(COC3OC(COC4OC(CO)C(O)C(O)C4O)C(O)C(OC4OC(CO)C(O)C(O)C4O)C3O)C(O)C(O)C2O)C(O)C1NC(C)=O)C(O)CO)OCCCCCCCCCCCCCCCC (centres unmarked) [Man4bGN2-DH] | – | – | – | – | – | Fluorescence signal intensity 127 (PGT 127): — (Signal less than 1); Fluorescence signal intensity 128 (PGT 128): — (Signal less than 1); Fluorescence signal intensity ConA (plant lectin ConA): 16,615; Fluorescence signal intensity 2G12 (2G12): — (Signal less than 1)
4 | CCCCCCCCCCCCCCCCOCC(COP(=O)(O)OCCNCC(O)C(OC1OC(CO)C(O)C(O)C1O)C(O)C(O)COC1OC(COC2OC(CO)C(O)C(O)C2O)C(O)C(OC2OC(CO)C(O)C(O)C2O)C1O)OCCCCCCCCCCCCCCCC (stereo not drawn) [Man5(α3,α6)-DH] | – | – | – | – | – | Fluorescence signal intensity 127 (PGT 127): — (Signal less than 1); Fluorescence signal intensity 128 (PGT 128): — (Signal less than 1); Fluorescence signal intensity ConA (plant lectin ConA): 15,291; Fluorescence signal intensity 2G12 (2G12): 34
5 | CCCCCCCCCCCCCCCCOCC(COP(=O)(O)OCCNCC(NC(C)=O)C(O)C(OC1OC(CO)C(OC2OC(COC3OC(COC4OC(CO)C(O)C(O)C4O)C(O)C(OC4OC(CO)C(O)C(O)C4O)C3O)C(O)C(OC3OC(CO)C(O)C(O)C3O)C2O)C(O)C1NC(C)=O)C(O)CO)OCCCCCCCCCCCCCCCC (centres unmarked) [Man5GN2-DH] | – | – | – | – | – | Fluorescence signal intensity 127 (PGT 127): — (Signal less than 1); Fluorescence signal intensity 128 (PGT 128): — (Signal less than 1); Fluorescence signal intensity ConA (plant lectin ConA): 16,390; Fluorescence signal intensity 2G12 (2G12): — (Signal less than 1)
6 | CCCCCCCCCCCCCCCCOCC(COP(=O)(O)OCCNCC(NC(C)=O)C(O)C(OC1OC(CO)C(OC2OC(COC3OC(COC4OC(CO)C(O)C(O)C4O)C(O)C(OC4OC(CO)C(O)C(O)C4O)C3O)C(O)C(OC3OC(CO)C(O)C(O)C3OC3OC(CO)C(O)C(O)C3O)C2O)C(O)C1NC(C)=O)C(O)CO)OCCCCCCCCCCCCCCCC (centres unmarked) [Man6GN2-DH] | – | – | – | – | – | Fluorescence signal intensity 127 (PGT 127): — (Signal less than 1); Fluorescence signal intensity 128 (PGT 128): — (Signal less than 1); Fluorescence signal intensity ConA (plant lectin ConA): 19,006; Fluorescence signal intensity 2G12 (2G12): 49
7 | CCCCCCCCCCCCCCCCOCC(COP(=O)(O)OCCNCC(NC(C)=O)C(O)C(OC1OC(CO)C(OC2OC(COC3OC(COC4OC(CO)C(O)C(O)C4OC4OC(CO)C(O)C(O)C4O)C(O)C(OC4OC(CO)C(O)C(O)C4OC4OC(CO)C(O)C(O)C4O)C3O)C(O)C(OC3OC(CO)C(O)C(O)C3OC3OC(CO)C(O)C(O)C3OC3OC(CO)C(O)C(O)C3O)C2O)C(O)C1NC(C)=O)C(O)CO)OCCCCCCCCCCCCCCCC (centres unmarked) [Man9GN2-DH] | – | – | – | – | – | Fluorescence signal intensity 127 (PGT 127): 24,209; Fluorescence signal intensity 128 (PGT 128): 26,071; Fluorescence signal intensity ConA (plant lectin ConA): 21,359; Fluorescence signal intensity 2G12 (2G12): 11,717
8 | Glcα-6Glcα-6Glcα-6Glcα-6Glcα-6Glc-AO [Dextran-6-AO] | – | – | – | – | – | Fluorescence signal intensity 127 (PGT 127): — (Signal less than 1); Fluorescence signal intensity 128 (PGT 128): — (Signal less than 1); Fluorescence signal intensity ConA (plant lectin ConA): 1,138; Fluorescence signal intensity 2G12 (2G12): — (Signal less than 1)
9 | PGT 127 Fab | – | – | – | – | – | IC50 (JR-FL neutralization) [1]: 14.6 nM; EC50 [2]: 12.7 nM
10 | PGT 128 Fab | – | – | – | – | – | IC50 (JR-FL neutralization) [1]: 6.3 nM; EC50 [2]: 10.3 nM
11 | PGT 128 IgG variant HC A30S (antibody) | 0.6 | 0.8 | 0.7 | 1.4 | 0.9 | –
12 | PGT 128 IgG variant HC A31S (antibody) | 0.9 | 0.8 | 1.1 | 1.2 | 1.1 | –
13 | PGT 128 IgG variant HC D27A (antibody) | 1.1 | 1.1 | 1 | 1.6 | 0.9 | –
14 | PGT 128 IgG variant HC D72A (antibody) | 0.7 | 0.9 | 0.7 | 1.2 | 1 | –
15 | PGT 128 IgG variant HC G55D (antibody) | 2.5 | 0.7 | 1.4 | 2.3 | 2 | –
16 | PGT 128 IgG variant HC H52aA (antibody) | 2.4 | 64 | 2.8 | 9.8 | 2.4 | Fold change in neutralization (IC50 variant/IC50 WT antibody) [9]: 146 fold; EC50 (read off the curve) [4]: 0.09 µg/mL
17 | PGT 128 IgG variant HC H59A (antibody) | 1 | 1 | 0.8 | 11.5 | 6.8 | Fold change in neutralization (IC50 variant/IC50 WT antibody) [9]: 12.4 fold
18 | PGT 128 IgG variant HC K100gA (antibody) | 28 | – | 22.3 | 1700 | 142 | Fold change in neutralization (IC50 variant/IC50 WT antibody) [9]: > 3000 fold; EC50 (read off the curve) [4]: 1 µg/mL
19 | PGT 128 IgG variant HC L51A (antibody) | 1.5 | 0.7 | 0.7 | 1.2 | 1.2 | –
20 | PGT 128 IgG variant HC L100A (antibody) | 1.3 | 1.7 | – | 2 | 0.8 | –
21 | PGT 128 IgG variant HC N33A (antibody) | 0.8 | 0.5 | 0.6 | 0.4 | 0.7 | –
22 | PGT 128 IgG variant HC R54A (antibody) | 0.6 | 0.9 | 0.5 | 2.3 | 0.6 | –
23 | PGT 128 IgG variant HC R100aA (antibody) | 1.5 | 0.7 | 1 | 2.1 | 1.3 | –
24 | PGT 128 IgG variant HC W52fA (antibody) | 1.5 | 1.5 | 1 | 29.5 | 3.9 | Fold change in neutralization (IC50 variant/IC50 WT antibody) [9]: 34.5 fold
25 | PGT 128 IgG variant HC W100eA (antibody) | 15 | 17.4 | 9.4 | 658 | 29.7 | Fold change in neutralization (IC50 variant/IC50 WT antibody) [9]: > 3000 fold; EC50 (read off the curve) [4]: 0.5 µg/mL
26 | PGT 128 IgG variant HC Y52eA (antibody) | 0.9 | 1.2 | 0.7 | 12.9 | 2.1 | Fold change in neutralization (IC50 variant/IC50 WT antibody) [9]: 21.1 fold
